The target in experiment [1] is HLA-DP4 (human). In words: DP4 competition ELISA; competitor biotinylated Hep B peptide; 5 fold excess of unlabelled peptide.
Experiment [2] has as its system HLA transgenic mice. The experiment can be described thus: T cell response to Hcit peptides in HLA transgenic mice (screening, ex vivo ELISpot). Set-up: species or system mouse. Particulars: yes/no; Hcit peptide with CpG/MPLA. As for the experimental part: (§1) C57BL/6 mice (Charles River, UK), HLA-DR4 mice (Model #4149, Taconic, USA), HLA-A2/DR1 (HHDII/DR1, Pasteur Institute), HLA-A2.1+/+HLA-DP4+/+hCD4+/+ (HLA-HHDII/DP4) transgenic mice (EM: 02221, European Mouse Mutant Archive) described in patent WO2013/017545 A1 (EMMA repository, France) were used, aged between 8 and 12 weeks. Peptides were dissolved in PBS to 1 mg/ml and then emulsified (a series of dilutions) with CpG ODN 1826 and MPLA 6 μg/mouse of each (Invivogen, UK). Peptides (25 μg/mouse) were injected subcutaneously at the base of the tail. Mice were immunised at days 1, 7 and 14 for peptide immunisation. Spleens were removed for analysis at day 21 unless stated otherwise.
(§2) ELISpot assays were performed using murine IFNγ, IL-17 and IL-10 capture and detection reagents according to the manufacturer's instructions (Mabtech, Sweden). In brief, anti-IFNγ, IL-17 and IL-10 specific antibodies were coated onto wells of 96-well Immobilin-P plate. Synthetic peptides (at various concentrations) and 5×10^5 per well splenocytes were added to wells of the plate in quadruplicate Tumour target cells were added where relevant at 5×10^4/well in triplicate and plates incubated for 40 hrs at 37° C. After incubation, captured IFNγ, IL-10 and IL-17 were detected by biotinylated anti-IFNγ, IL-10 and IL-17 antibodies and developed with a streptavidin alkaline phosphatase and chromogenic substrate. Lipopolysaccharide (LPS; 5 μg/ml) was used as a positive control. For MHC blocking studies, anti-CD4 blocking antibody (GK1.5) or anti-CD4 blocking antibody (RPA-T4) for HHDII/DP4 mice which express human CD4 and anti-CD8 blocking antibody (2.43) from Bioxcell were used at 20 μg/ml. Spots were analysed and counted using an automated plate reader (Cellular Technologies Ltd).
(§3) Screening was performed to identify potential homocitrullinated vimentin epitopes in mice. Mice were immunised with pools of homocitrullinated peptides. […] Each pool was administered as three immunisations containing 20 μg of each peptide and CpG/MPLA as an adjuvant on day 1, 8 and 15. On day 21 the mice were culled and the immune responses to each peptide within the immunising pool were assessed by ex vivo ELISpot. Given that different mouse strains have different MHC repertoires a number of strains were used for screening. Peptide responses were assessed in transgenic strains expressing human DR4 or HHDII/DR1 in a C57BL/6 background (see methods).
Screening was performed to identify potential homocitrullinated ALDOA epitopes in transgenic HHDII/DP4 and HHDII/DR1 mice. Mice were immunised with pools of human homocitrullinated peptides. […] Each pool was administered as three immunisations containing 20 μg of each peptide and CpG/MPLA as an adjuvant. After 21 days the mice were culled and the immune responses to each peptide within the immunising pool were assessed by ex vivo ELISpot in HHDII/DP4 (FIG. 4b) and HHDII/DR1 mice (FIG. 4d).
Using this combination of predictions, 5 CyK8 peptides containing homocitrulline were synthesised (Table 4). Screening was performed to identify potential homocitrullinated Cyk8 epitopes in transgenic HHDII/DP4. Mice were immunised with pools of human homocitrullinated peptides. […] Each pool was administered as three immunisations containing 20 μg of each peptide and CpG/MPLA as an adjuvant. After 21 days the mice were culled and the immune responses to each peptide within the immunising pool were assessed by ex vivo ELISpot in HHDII/DP4 (FIG. 10a).

The target of experiment [3] is T1, HLA-DP4 (Homo sapiens, UniProt P04440+P20036).
T1 sequence (P20036 29-260): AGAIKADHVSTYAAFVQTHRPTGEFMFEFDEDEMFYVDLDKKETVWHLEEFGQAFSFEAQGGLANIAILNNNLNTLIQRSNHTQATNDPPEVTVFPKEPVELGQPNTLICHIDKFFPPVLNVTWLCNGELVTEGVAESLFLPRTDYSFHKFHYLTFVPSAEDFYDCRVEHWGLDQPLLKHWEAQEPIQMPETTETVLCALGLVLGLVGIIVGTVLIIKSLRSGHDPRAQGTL
T1 sequence (P04440 30-258): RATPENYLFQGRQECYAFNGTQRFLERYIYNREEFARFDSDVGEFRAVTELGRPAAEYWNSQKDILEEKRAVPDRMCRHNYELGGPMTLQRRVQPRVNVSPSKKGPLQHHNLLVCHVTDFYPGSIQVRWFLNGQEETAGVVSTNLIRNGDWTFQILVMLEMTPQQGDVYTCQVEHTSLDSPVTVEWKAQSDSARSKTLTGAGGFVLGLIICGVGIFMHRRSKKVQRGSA
In words: DP4 competition assay with biotinylated Hep B peptide. Particulars: inhibition of biotinylated Hep B binding to HLA-DP4; 5 fold excess test peptide, equal amount for unlabelled Hep B. As for the experimental part:
2×T175 gave 2.5×10^7 B16 HHDII/DP4 (B16F1 β2M H2Ab1 dKO A35 HHDII/DP4 H7/2E9/F9 p14) cells. This was enough for 5 preps using the following protocol with Mem-PER™ Plus Membrane Protein Extraction Kit (thermo-scientific cat #89842).
5×10^6 cells were resuspended in the growth media by scraping the cells off the surface of the plate with a cell scraper and then centrifuged at 300 g for 5 mins. The cell pellet was washed with 3 ml of Cell Wash Solution and centrifuged at 300 g for 5 mins. The supernatant was removed and discarded. The cells were resuspended in 1.5 ml of Cell Wash Solution and transfer to a 2 ml centrifuge tube and centrifuged at 300 g for 5 mins. The supernatant was discarded. 0.75 ml of permeabilization buffer was added to the cell pellet and vortexed briefly to obtain a homogeneous cell suspension and incubated for 10 mins at 4° C. with constant mixing. The permeabilized cells were centrifuge for 15 mins at 16,000g before carefully removing the supernatant containing cytosolic proteins and transfering to a new tube. 0.5 ml of solubilization buffer was added to the pellet and resuspend prior to incubating at 4° C. for 30 minutes with constant mixing prior to centrifugation at 16,000g for 15 mins at 4° C. The supernatant containing solubilized membrane and membrane-associated proteins was transfered to a new tube. Aliquots were frozen at −80° C. for future use. 12.5 μl Halt™ Protease and Phosphatase Inhibitor Cocktail, EDTA-free (100X) thermo-scientific (Catalog number 78445) was added prior to freezing.
High binding plates were coated with streptavidin (Sigma S4762 at 1 mg/ml) 1/500 in PBS and incubated overnight at 4° C. The plates were blocked with 1% BSA in PBS for 4 hrs at room temp and washed 3×PBS/0.5% Tweenx. 450 μl of cell prep lysate (B16F1 B16 HHDII/DP4 H7/2E9/F9) was mixed with 50 μg test peptide (see below) or 10 μg of unlabelled Hep B peptide for 30 mins. 10 μg biotinylated Hep B peptide was added & incubated for 4 hrs at 37° C.:
Lysate/peptide mix was added to the plates at 100 μl/well and incubated for 4 hrs at room temperature. Plates were washed 3× with PBS/0.5% Tween. 100 μl per well of Leinco anti-Human HLA-DP4 clone B7/21 #H260 1 mg/ml at 1/500 dilution in 1% BSA/PBS was added and incubated for 1 hr at room temperature prior to washing 3× PBS/0.5% Tween. Goat anti-mouse lgG3-HRP at 0.5 mg/ml 1/500 100 μl per well (Invitrogen #M32607) diluted in 1% BSA/PBS) was added for 1 hr at room temperature prior to washing and adding 150 μl of TMB substrate to each well. The reaction was stopped with 50 μl of 2N H2SO4 and plates read plate at 450 nm.
To ensure that the biotinylation of Hep B had not interfered with its binding, HLA-DP4 was incubated with equal amounts of biotinylated and unlabelled Hep B peptide. Unlabelled peptide competed equally reducing binding by 47% (FIG. 53b).
The biotinylated HepB peptide was then incubated with a 5 fold excess of the unlabelled homocitrulline peptides. All peptides inhibited the binding of biotinylated Hep B to HLA-DP4 but to varying levels (FIG. 53c-e).

Experiment [4] relates to HLA-DR4 mice. In words: Ex vivo IFNγ ELISpot after peptide immunisation, HLA-DR4 mice. In kind it is in vivo, mouse. The method, then: as §1, §2, §3
For experiment [5], the system named is HLA-HHDII/DR1 mice. In words: Ex vivo IFNγ ELISpot after peptide immunisation, HHDII/DR1 mice. In kind it is in vivo, mouse. The method, then: as §1, §2
as §3, with “methods). […]” for “methods).”
The five selected homocitrullinated Cyk8 peptides were also screened in HHDII/DR1 transgenic mice. […] Response to Cyk8 112Hcit peptide in the HHDII/DR1 mice was lost in the presence of CD8 blocking antibody but less effect of the CD4 blocking antibody was seen (FIG. 12b). […] Responses to homocitrullinated Cyk8 peptides show both CD4 and CD8 mediated responses.

One may read the % inhibition as the drop in the measured response relative to a control, in per cent.

Where no end group is shown, it is not given here. [ ]: non-standard residue; d: D form. hCit = NC(=O)NCCCC[C@H](N)C(=O)O

In experiment [1], Aldolase A 74-93 WT (peptide) showed a % inhibition of 27%. Aldolase A 140-157 WT (peptide): the % inhibition in experiment [1] came to 29%. In the case of Aldolase A 238-256 Hcit (peptide), the % inhibition in experiment [1] came to 73%. The molecule Cytokeratin 8 182-202 Hcit (peptide) came in with a % inhibition in experiment [1] of 61%. Same read-out and setting: the figure for Cytokeratin 8 371-388 Hcit (peptide) is 72%.

Turning to “EAEEWY-Hcit-S-Hcit-FADLSEAAN [Vimentin 286-303 Hcit]”, the T cell response result in experiment [2] is on record as “no”.

Take “GFFLLTRILTIPQ [HepB, reference compound]”: the “% inhibition” value in experiment [3] was found to be 47%. On the same count and under the same terms, the figure for “IGGVILFHETLYQKADDGRP [Aldolase A 74-93 WT, reference compound]” is 27%; for “KDGADFAKWRCVLKIGEH [Aldolase A 140-157 WT, reference compound]” it is 29%. In the case of “KVRFLEQQN-Hcit-LLAE [Vimentin 120-134 Hcit]”, the “cross reactivity of vimentin 116-135 Hcit response to shorter Hcit peptide” value in experiment [4] and in experiment [5] was “Cross reactivity was seen” throughout. For “LPLVDTHS-Hcit-RTLL-Hcit-TVETRDGQV [Vimentin 431-454 Hcit]”, the T cell response result in experiment [2] is recorded as “no”. As to “LSDHHVYLEGTLL-hcit-PNMVT (LSDHHVYLEGTLL[hCit]PNMVT) [Aldolase A 217-235 Hcit]”, the “% inhibition” value in experiment [3] was found to be 84%. For the same molecule, the T cell response entry in experiment [2] was “no”. Take “QIDVDVS-Hcit-PDLTAALRDVRQQ [Vimentin 255-275 Hcit]”: the T cell response entry in experiment [2] is “no”. Molecule Vimentin 116-135 WT (peptide) returned a % inhibition in experiment [1] of 48%.

On to “hcit-CPLL-hcit-PWALTFSYGRALQ ([hCit]CPLL[hCit]PWALTFSYGRALQ) [Aldolase A 289-307 Hcit]”, for which the “% inhibition” value in experiment [3] is on record as 45%. Moreover, the T cell response result in experiment [2] is recorded as “no”.

B1: Cytokeratin 8 381-399 Hcit (peptide)
peptide: [hCit]LALDIEIATYR[hCit]LLEGEE
With B1, in experiment [1], the % inhibition came out at 60%.

B2: Aldolase A 289-307 Hcit (peptide)
peptide: [hCit]CPLL[hCit]PWALTFSYGRALQ
Molecule B2 showed a % inhibition in experiment [1] of 45%.

B3: Vimentin 116-135 Hcit (peptide)
peptide: NYID[hCit]VRFLEQQN[hCit]ILLAEL
The molecule B3 showed a % inhibition in experiment [1] of 44%.

B4: Aldolase A 217-235 Hcit (peptide)
peptide: LSDHHVYLEGTLL[hCit]PNMVT
The molecule B4 registered a % inhibition in experiment [1] of 84%.

B5: Cytokeratin 8 101-120 Hcit (peptide)
peptide: KFASFID[hCit]VRFLEQQN[hCit]MLE
In experiment [1], B5 displayed a % inhibition of 71%.

B6: Cytokeratin 8 112-131 Hcit (peptide)
peptide: LEQQN[hCit]MLET[hCit]WSLLQQQ[hCit]T
Molecule B6 registered a % inhibition in experiment [1] of 64%.

B7: Aldolase A 140-157 Hcit (peptide)
peptide: [hCit]DGADFA[hCit]WRCVL[hCit]IGEH
As to B7, in experiment [1], the % inhibition stood at 76%.

B8: Aldolase A 74-93 Hcit (peptide)
peptide: IGGVILFHETLYQ[hCit]ADDGRP
B8 displayed a % inhibition in experiment [1] of 69%.

Source of the values: patent publication US12458688B2, “Epitopes” (Scancell Limited, priority 2018, dated 2025).
